Publication PMC8727931

B1: His-tagged GABARAP [not stated] / GST-FAM134B [not stated] (parent)
chain 1: MKFVYKEEHPFEKRRSEGEKIRKKYPDRVPVIVEKAPKARIGDLDKKKYLVPSDLTVGQFYFLIRKRIHLRAEDALFFFVNNVIPPTSATMGQLYQEHHEEDFFLYIAYSDESVYGL
chain 2: EGDDFELLDQSELDQIESELGLTQDQ

Variants of: B1
Assay: competitive GST pull-down (gel band quantification)
Settings: with GST-FAM134B; competition with MBP-LC3A H57D in the same reaction; n = 3; read off a plot

ratio to parent | Variant
1.05 | chain 1 D54H

Same assay, conditions: with GST-FAM134B; competition with MBP-LC3A K30R in the same reaction; n = 3; read off a plot

ratio to parent | Variant
0.87 | chain 1 R28K

Same assay, conditions: with GST-FAM134B; competition with MBP-LC3A K65F in the same reaction; n = 3; read off a plot

ratio to parent | Variant
1.05 | chain 1 F62K

Same assay, conditions: with GST-FAM134B; competition with MBP-LC3A H27Y in the same reaction; n = 3; read off a plot

ratio to parent | Variant
0.89 | chain 1 Y25H
